Residue numbers refer to the chain shown, from its start.
Experiments:
[1] = tested on: T1, Cry8Bb1-ISC-1 88 kDa polypeptide
T1 sequence: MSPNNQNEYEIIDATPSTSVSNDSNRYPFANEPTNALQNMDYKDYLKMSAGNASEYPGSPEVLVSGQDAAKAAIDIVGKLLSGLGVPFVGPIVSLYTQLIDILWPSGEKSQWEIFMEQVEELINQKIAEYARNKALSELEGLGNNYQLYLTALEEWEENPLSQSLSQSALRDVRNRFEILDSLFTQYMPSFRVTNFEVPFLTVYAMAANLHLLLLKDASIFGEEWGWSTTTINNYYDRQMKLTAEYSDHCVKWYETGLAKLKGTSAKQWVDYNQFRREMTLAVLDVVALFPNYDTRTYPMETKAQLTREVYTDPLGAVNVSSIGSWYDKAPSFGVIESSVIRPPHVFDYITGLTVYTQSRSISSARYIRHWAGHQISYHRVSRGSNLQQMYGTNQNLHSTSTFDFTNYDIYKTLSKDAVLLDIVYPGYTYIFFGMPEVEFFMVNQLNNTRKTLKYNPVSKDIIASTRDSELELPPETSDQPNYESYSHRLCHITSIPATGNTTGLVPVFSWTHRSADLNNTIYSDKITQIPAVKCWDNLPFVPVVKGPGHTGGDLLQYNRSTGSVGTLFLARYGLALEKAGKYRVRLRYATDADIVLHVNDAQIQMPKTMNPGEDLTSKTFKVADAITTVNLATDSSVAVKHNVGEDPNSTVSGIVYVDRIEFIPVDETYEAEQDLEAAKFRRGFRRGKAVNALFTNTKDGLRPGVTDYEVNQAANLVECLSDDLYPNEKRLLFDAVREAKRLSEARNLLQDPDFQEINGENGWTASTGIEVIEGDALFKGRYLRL

[2] = tested on: T2, Cry8Bb1-K05 88 kDa polypeptide
T2 sequence: T1 sequence with L161F, S162R, Q163R, S164G, L165F, S166R, Q167R, S168G

chymotrypsin
proteolytic digestion for 72 h (SDS-PAGE) [1]: the 88 kDa Cry8Bb1-ISC-1 polypeptide was not cleaved within the activation loop to generate the 55 kDa polypeptide | proteolytic digestion for 72 h (SDS-PAGE, N-terminal sequencing) [2]: Cry8Bb1-K05 was cleaved within the loop between helix 3 and 4 of domain I of the toxin molecule to generate a 55 kDa polypeptide

trypsin
proteolytic digestion for 72 h (SDS-PAGE) [1]: the 88 kDa Cry8Bb1-ISC-1 polypeptide was not cleaved within the activation loop to generate the 55 kDa polypeptide | proteolytic digestion for 72 h (SDS-PAGE, N-terminal sequencing) [2]: Cry8Bb1-K05 was cleaved within the loop between helix 3 and 4 of domain I of the toxin molecule to generate a 55 kDa polypeptide

From patent US20060288448
